Measurements reported in US20250084188A1 (published 2025).

These binders were tested against human chitinase-3-like protein 1 (hCHI3L1) (human, UniProt P36222 22-383) (assay: ELISA).
Sequence of human chitinase-3-like protein 1 (hCHI3L1) (P36222 22-383): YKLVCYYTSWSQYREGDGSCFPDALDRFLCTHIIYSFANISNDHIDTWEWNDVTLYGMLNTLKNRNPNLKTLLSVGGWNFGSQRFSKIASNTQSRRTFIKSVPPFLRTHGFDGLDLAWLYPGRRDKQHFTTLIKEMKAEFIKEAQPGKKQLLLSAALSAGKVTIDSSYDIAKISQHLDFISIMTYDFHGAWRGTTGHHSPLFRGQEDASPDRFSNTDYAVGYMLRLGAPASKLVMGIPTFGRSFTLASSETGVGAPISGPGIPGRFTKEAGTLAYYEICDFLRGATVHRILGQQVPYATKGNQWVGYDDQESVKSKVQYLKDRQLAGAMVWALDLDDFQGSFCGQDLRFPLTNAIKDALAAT

| Binder | EC50 [nM] |
| --- | --- |
| D2 (IgG) (antibody, V domains shown) VH: EVQLVESGGGLVQPGGSLRLSCAASGFTFSSYAMHWVRQAPGKGLEWVSAISSSSGTIYYADSVKGRFTISRDNSKNTLYLQMNSLRAEDTAVYYCAKDFGAVFDYWGQGTLVTVSS VL: not shown | 0.577 |
| H1 (IgG) (antibody, V domains shown) VH: EVQLVESGGGLVQPGGSLRLSCAASGFTFSSYAMSWVRQAPGKGLEWVSAIRSSGGTTYYADSVKGRFTISRDNSKNTLYLQMNSLRAEDTAVYYCAKSQSTVADYWGQGTLVTVSS VL: DIQMTQSPSSLSASVGDRVTITCRASQSISNWLNWYQQKPGKAPKLLIYATSRLQSGVPSRFSGSGSGTDFTLTISSLQPEDFATYYCQQSYSFPLTFGQGTKVEIK | 0.496 |
| 1E12 (IgG) (antibody, V domains shown) VH: EVQLVESGGGLVQPGGSLRLSCAASGFTFSSYAMHWVRQAPGKGLEWVSAISSSGGTKYYADSVKGRFTISRDNSKNTLYLQMNSLRAEDTAVYYCAKGLQGGAGAFDIWGQGTLVTVSS VL: DIQMTQSPSSLSASVGDRVTITCRASQSISNYLNWYQQKPGKAPKLLIYATSTLHSGVPSRFSGSGSGTDFTLTISSLQPEDFATYYCQQSYSFPWTFGQGTKVEIK | 0.139 |
| F4 (IgG) (antibody, V domains shown) VH: not shown VL: DIQMTQSPSSLSASVGDRVTITCRASQSISRWLNWYQQKPGKAPKLLIYAASRLQSGVPSRFSGSGSGTDFTLTISSLQPEDFATYYCQQSYSTPWTFGQGTKVEIK | 0.111 |
| F2 (IgG) (antibody, V domains shown) VH: EVQLVESGGGLAQPGGSLRLSCAASGFTFSSYAMHWVRQAPGKGLEWVSSIKSSGGSKNYADSVKGRFTISRDNSKNTLYLQMNSLRAEDTAVYYCAKGYGASFDFWGQGTLVTVSS VL: DIQMTQSPSSLSASVGDRVTITCRASQDISSWLNWYQQKPGKAPKLLIYAASRLQSGVPSRFSGSGSGTDFTLTISSLQPEDFATYYCQQAYSFPWTFGQGTKVEIK | 1.75 |

Other lines, results leading:

| EC50 [nM] | Binder |
| --- | --- |
| 2.05 | A7 (IgG) (antibody, V domains shown) VH: EVQLVESGGGLVQPGGSLRLSCAASGFTFSDYAMSWVRQAPGKGLEWVSGISSSGGTIYYADSVKGRFTISRDNSKNTLYLQMNSLRAEDTAVYYCAKAIGSWADIWGQGTLVTVSS VL: DIQMTQSPSSLSASVGDRVTITCRASQDISNYLNWYQQKPGKAPKLLIYAASSLQSGVPSRFSGSGSGTDFTLTISSLQPEDFATYYCQQSYSFPYTFGQGTKVEIK |
| 0.093 | C5 (IgG) (antibody, V domains shown) VH: EVQLVESGGGLVQPGGSLRLSCAASGFTFSSYAMSWVRQAPGKGLEWVSSISSSSGTTHYADSVKGRFTISRDNSKNTLYLQMNSLRAEDTAVYYCAKGGAFDYWGQGTLVTVSS VL: DIQMTQSPSSLSASVGDRVTITCRASQDISRWLNWYQQKPGKAPKLLIYAASTLQSGVPSRFSGSGSGTDFTLTISSLQPEDFATYYCQQSYSFPLTFGQGTKVEIK |
| 0.972 | A5 (IgG) (antibody, V domains shown) VH: not shown VL: DIQMTQSPSSLSASVGDRVTITCRASQSISRWLNWYQQKPGKAPKLLIYATSTLQSGVPSRFSGSGSGTDFTLTISSLQPEDFATYYCQQSYSFPWTFGQGTKVEIK |
| 1.38 | H7 (IgG) (antibody, V domains shown) VH: EVQLVESGGGLVQPGGSLRLSCAASGFTFSSYGMHWVRQAPGKGLEWVSGISSSGGSKYYADSVKGRFTISRDNSKNTLYLQMNSLRAEDTAVYYCAKHGHQQMDFWGQGTLVTVSS VL: DIQMTQSPSSLSASVGDRVTITCRASQSISSWLNWYQQKPGKAPKLLIYAASRLQSGVPSRFSGSGSGTDFTLTISSLQPEDFATYYCQQTYSFPWTFGQGTKVEIK |
| 0.348 | E7 (IgG) (antibody, V domains shown) VH: EVQLVESGGGLVQPGGSLRLSCAASGFTFSSYAMHWVRQAPGKGLEWVSAISSSGGSIYYADSVKGRFTISRDNSKNTLYLQMNSLRAEDTAVYYCAKQGLSFDIWGQGTLVTVSS VL: DIQMTQSPSSLSASVGDRVTITCRASQSISNWLNWYQQKPGKAPKLLIYATSRLQSGVPSRFSGSGSGTDFTLTISSLQPEDFATYYCQQSYSFPYTFGQGTKVEIK |
